Test results taken from patent US20190233528A1 (published 2019).

T1: recombinant biotinylated human CD70 protein (human, UniProt P32970 39-193, biotinylated (site not stated))
T1 construct: also called recombinant biotinylated hCD70 protein
T1 sequence: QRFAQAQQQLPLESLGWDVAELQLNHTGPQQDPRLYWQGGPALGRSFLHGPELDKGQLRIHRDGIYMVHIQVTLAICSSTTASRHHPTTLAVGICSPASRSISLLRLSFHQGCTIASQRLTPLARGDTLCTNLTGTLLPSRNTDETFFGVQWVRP

T2: human CD70 expressed on parental (WT) Jurkat cells (human, UniProt P32970 1-193)
T2 sequence: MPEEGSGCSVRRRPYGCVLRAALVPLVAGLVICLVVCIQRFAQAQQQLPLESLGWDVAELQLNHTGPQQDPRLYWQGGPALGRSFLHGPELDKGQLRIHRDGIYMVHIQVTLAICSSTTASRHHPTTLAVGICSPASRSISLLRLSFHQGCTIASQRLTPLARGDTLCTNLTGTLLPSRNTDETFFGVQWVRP

B1: 17G6 CD70-specific CAR (other)
chain: EVQLVESGGGLVQPGGSLRLSCVASGFTFSSYWMSWVRQAPGKGLEWVASIKQDGSEKYYVDSVKGRFTISRDNAKNSVYLQMNSLRAEDTGVYYCAREGVNWGWRLYWHFDLWGRGTLVTVSSGGGGSGGGGSGGGGSGGGGSDIVMTQSPDSLAVSLGERATINCKSSQSVLYSYNNKNYVAWYQQKPGQPPNLLIFWASTRESGVPDRFSGSGSGTDFTLTISSLQAEDVAVYYCQQYYSTLTFGGGTKVEIKTTTPAPRPPTPAPTIASQPLSLRPEACRPAAGGAVHTRGLDFACDIYIWAPLAGTCGVLLLSLVITLYCKRGRKKLLYIFKQPFMRPVQTTQEEDGCSCRFPEEEEGGCELRVKFSRSADAPAYQQGQNQLYNELNLGRREEYDVLDKRRGRDPEMGGKPRRKNPQEGLYNELQKDKMAEAYSEIGMKGERRRGKGHDGLYQGLSTATKDTYDALHMQALPPR
notes: Chimeric antigen receptor on transduced Jurkat cells; the signal peptide is left out
B2: 10H10 CD70-specific CAR (other)
chain: EVQLVESGGGLVQPGGSLRLSCAVSGFTFSNHNIHWVRQAPGKGLEWISYISRSSSTIYYADSVKGRFTISRDNAKNSLYLQMNSLRDEDTAVYYCARDHAQWYGMDVWGQGTTVTVSSGGGGSGGGGSGGGGSGGGGSDIQMTQSPSSVSASVGDRVTITCRASQGISSWLAWYQQKPGKAPKVLIYAASSLQSGVPSRFSGSGSGTDFTLTISSLQPEDFATYYCQQAFSFPFTFGPGTKVDIKTTTPAPRPPTPAPTIASQPLSLRPEACRPAAGGAVHTRGLDFACDIYIWAPLAGTCGVLLLSLVITLYCKRGRKKLLYIFKQPFMRPVQTTQEEDGCSCRFPEEEEGGCELRVKFSRSADAPAYQQGQNQLYNELNLGRREEYDVLDKRRGRDPEMGGKPRRKNPQEGLYNELQKDKMAEAYSEIGMKGERRRGKGHDGLYQGLSTATKDTYDALHMQALPPR
notes: as for B1
B3: 64F9 CD70-specific CAR (other)
chain: EVQLLESGGGLVQPGESLRLSCEVSGFTFTSYAMSWVRQVPGKGLEWVSIISGVAFTTYYADSVKGRFTISRDHSKNTLYLQMNGLRAEDTAVYYCVKVDGEVYWGQGTLVTVSSGGGGSGGGGSGGGGSGGGGSDIQMTQSPSSLSASVGDRVTITCQASQDISNYLNWYQQKPGKAPKILIYGASNLETGVPSRFSGSGSGTDFTFAISSLQPEDVATYYCQQYDNFPITFGQGTRLEIKTTTPAPRPPTPAPTIASQPLSLRPEACRPAAGGAVHTRGLDFACDIYIWAPLAGTCGVLLLSLVITLYCKRGRKKLLYIFKQPFMRPVQTTQEEDGCSCRFPEEEEGGCELRVKFSRSADAPAYQQGQNQLYNELNLGRREEYDVLDKRRGRDPEMGGKPRRKNPQEGLYNELQKDKMAEAYSEIGMKGERRRGKGHDGLYQGLSTATKDTYDALHMQALPPR
notes: as for B1
B4: P12F02 CD70-specific CAR (other)
chain: EVQLLESGGGLVQPGGSLRLSCAASGFTFSSYAMSWVRQAPGKGLEWVSTISGTGGTTYYADSVKGRFTISRDNSKNTLYLQMNSLRAEDTAVYYCAKVRAGIDPTASDVWGQGTLVTVSSGGGGSGGGGSGGGGSGGGGSELQSVLTQPPSASGTPGQRVTISCSGSTSNIGRNYVYWYQQLPGTAPKLLIYRTNQRPSGVPDRFSGSKSGTSASLAISGLRSEDEADYYCAAWDDSLSGRVFGTGTKLTVLTTTPAPRPPTPAPTIASQPLSLRPEACRPAAGGAVHTRGLDFACDIYIWAPLAGTCGVLLLSLVITLYCKRGRKKLLYIFKQPFMRPVQTTQEEDGCSCRFPEEEEGGCELRVKFSRSADAPAYQQGQNQLYNELNLGRREEYDVLDKRRGRDPEMGGKPRRKNPQEGLYNELQKDKMAEAYSEIGMKGERRRGKGHDGLYQGLSTATKDTYDALHMQALPPR
notes: as for B1
B5: P13F04 CD70-specific CAR (other)
chain: QVQLVQSGAEVKKPGSSVKVSCKASGGTFSSYAISWVRQAPGQGLEWMGEIIPIFGTASYAQKFQGRVTITADESTSTAYMELSSLRSEDTAVYYCARAGWDDSWFDYWGQGTLVTVSSGGGGSGGGGSGGGGSGGGGSELQSVLTQPPSASGTPGQRVTISCSGSNSNIGTNYVSWYQQLPGTAPKLLIYRSSRRPSGVPDRFSGSKSGTSASLAISGLRSEDEADYYCAAWDGSLSGHWVFGTGTKLTVLTTTPAPRPPTPAPTIASQPLSLRPEACRPAAGGAVHTRGLDFACDIYIWAPLAGTCGVLLLSLVITLYCKRGRKKLLYIFKQPFMRPVQTTQEEDGCSCRFPEEEEGGCELRVKFSRSADAPAYQQGQNQLYNELNLGRREEYDVLDKRRGRDPEMGGKPRRKNPQEGLYNELQKDKMAEAYSEIGMKGERRRGKGHDGLYQGLSTATKDTYDALHMQALPPR
notes: as for B1
B6: P15D02 CD70-specific CAR (other)
chain: EVQLVQSGAEVKKPGESLKISCKGSGYSFASYWIGWVRQMPGKGLEWMGVIYPGTSETRYSPSFQGQVTISADKSISTAYLQWSSLKASDTAMYYCAKGLSASASGYSFQYWGQGTLVTVSSGGGGSGGGGSGGGGSGGGGSELDIQMTQSPSSLSASVGDRVTITCRASQSIDTYLNWYQQKPGKAPKLLIYSASSLHSGVPSRFSGSGSGTDFTLTISSLQPEDFATYYCQQSYSTTAWTFGQGTKVEIKTTTPAPRPPTPAPTIASQPLSLRPEACRPAAGGAVHTRGLDFACDIYIWAPLAGTCGVLLLSLVITLYCKRGRKKLLYIFKQPFMRPVQTTQEEDGCSCRFPEEEEGGCELRVKFSRSADAPAYQQGQNQLYNELNLGRREEYDVLDKRRGRDPEMGGKPRRKNPQEGLYNELQKDKMAEAYSEIGMKGERRRGKGHDGLYQGLSTATKDTYDALHMQALPPR
notes: as for B1
B7: P12G07 CD70-specific CAR (other)
chain: EVQLLESGGGLVQPGGSLRLSCAASGFTFNNFAMSWVRQAPGKGLEWVSGISGSGDNTYYADSVKGRFTISRDNSKNTLYLQMNSLRAEDTAVYYCAKDRDIGLGWYSYYLDVWGQGTLVTVSSGGGGSGGGGSGGGGSGGGGSELQSVLTQPPSASGTPGQRVTISCSGSSSNIGSNYVYWYQQLPGTAPKPLIYMNNQRPSGVPDRFSGSKSGTSASLAISGLRSEDEADYYCAAWDDSLSAVVFGTGTKLTVLTTTPAPRPPTPAPTIASQPLSLRPEACRPAAGGAVHTRGLDFACDIYIWAPLAGTCGVLLLSLVITLYCKRGRKKLLYIFKQPFMRPVQTTQEEDGCSCRFPEEEEGGCELRVKFSRSADAPAYQQGQNQLYNELNLGRREEYDVLDKRRGRDPEMGGKPRRKNPQEGLYNELQKDKMAEAYSEIGMKGERRRGKGHDGLYQGLSTATKDTYDALHMQALPPR
notes: as for B1
B8: P16C05 CD70-specific CAR (other)
chain: EVQLVQSGAEVKKPGESLKISCKGSGYSFTDYWIGWVRQMPGKGLEWMGMISPGGSTTIYRPSFQGQVTISADKSISTAYLQWSSLKASDTAMYYCAREMYTGGYGGSWYFDYWGQGTLVTVSSGGGGSGGGGSGGGGSGGGGSELDIQMTQSPSSLSASVGDRVTITCRASQSIGQSLNWYQQKPGKAPKLLIYGASSLQSGVPSRFSGSGSGTDFTLTISSLQPEDFATYYCQQSYSTPITFGQGTKVEIKTTTPAPRPPTPAPTIASQPLSLRPEACRPAAGGAVHTRGLDFACDIYIWAPLAGTCGVLLLSLVITLYCKRGRKKLLYIFKQPFMRPVQTTQEEDGCSCRFPEEEEGGCELRVKFSRSADAPAYQQGQNQLYNELNLGRREEYDVLDKRRGRDPEMGGKPRRKNPQEGLYNELQKDKMAEAYSEIGMKGERRRGKGHDGLYQGLSTATKDTYDALHMQALPPR
notes: as for B1
B9: 40E3 CD70-specific CAR (other)
chain: QVQLQESGPGLVKPSETLSLTCTVSGGSISSYYWNWIRQPPGKGLEWIGYIYYSGSTNYNPSLKSRVTISVDTSKNQFSLKLRSVTAADTAVYYCARDIRTWGQGTLVTVSSGGGGSGGGGSGGGGSGGGGSDIQMTQSPSSLSASVGDRVTITCRASQGISNYLAWFQQKPGKAPKSLIYAASSLQSGVPSKFSGSGSGTDFTLTISSLQPEDFATYYCQQYNSYPLTFGGGTKVEIKTTTPAPRPPTPAPTIASQPLSLRPEACRPAAGGAVHTRGLDFACDIYIWAPLAGTCGVLLLSLVITLYCKRGRKKLLYIFKQPFMRPVQTTQEEDGCSCRFPEEEEGGCELRVKFSRSADAPAYQQGQNQLYNELNLGRREEYDVLDKRRGRDPEMGGKPRRKNPQEGLYNELQKDKMAEAYSEIGMKGERRRGKGHDGLYQGLSTATKDTYDALHMQALPPR

The binders below were run against T1, recombinant biotinylated human CD70 … (assay: flow cytometry: CAR-transduced Jurkat cells incubated with recombinant biotinylated human CD70, streptavidin-PE; percent of cells binding).
Method: (§1) On Day 5, transduced cells were stained with human anti-CD69 antibody conjugated to PE-Cy7 and acquired on a flow cytometer to obtain percentage of CD69+ population for each CAR. […] Activation ratios (WT activation/KO activation) and protein binding were used to rank CARs.
Activation ratio and protein binding of hybridoma CARs were determined in the Jurkat screen and used for in vitro characterization of CARs. Activation ratio was determined by calculating the ratio of the percentage of CD69 expression on WT Jurkat cells transduced with CD70 CAR (WT) to that on CD70 knockout Jurkat cells transduced with CD70 CAR (KO). A higher activation ratio indicates target-dependent activation. […] Protein binding values indicate the percentage of CD3+ CAR T cells that bind to human CD70 protein.

Protein binding (%)	Binder
37.6	B1
17.9	B2
6.24	B3

Target: T1, recombinant biotinylated human CD70 …
Test: as above
Remark: another data set of the same source
Method: as §1
Table 7: Activation ratio and protein binding of phage CARs were determined in the Jurkat screen. Activation ratio was used for in vitro characterization of CARs. Activation ratio was determined by calculating the ratio of the percentage of CD69 expression on WT Jurkat cells transduced with CD70 CAR (WT) to that on CD70 knockout Jurkat cells transduced with CD70 CAR (KO). A higher activation ratio indicates target-dependent activation. […] Protein binding values indicate the percentage of CD3+ CAR T cells that bind to human CD70 protein.

Protein binding (%)	Binder
2.39	B4
37.5	B5
62	B6
15.5	B7
70.8	B8

What follows are binders tested against T2, human CD70 expressed on parental (WT) … (assay: cell-based or functional assay).

Activation ratio (WT/KO)	Binder
12	B4
4.32	B5
2.6	B6
11.6	B7
2.26	B8

Target: T2, human CD70 expressed on parental (WT) …
Test: cell-based or functional assay
Remark: another data set of the same source

Activation ratio (WT/KO)	Binder
6.84	B1
2.09	B9
7.32	B2
3.89	B3
